Source: article PMC4491177, “Co-translational capturing of nascent ribosomal proteins by their dedicated chaperones” (Nature Communications, 2015)
Where a chain is given by its changes, count along the chain named. Numbers in names are those of the source. Ends that are not written are not given here.

How the values were obtained:
[1] = test system: Sqt1; test: Y2H interaction with Sqt1; format: binding, S. cerevisiae; conditions: reporter strain PJ69-4A, HIS3 and ADE2 reporters, 3 days at 30 °C
Method: For Y2H interaction assays, plasmids expressing bait proteins, fused to the Gal4 DNA-binding domain (G4BD), and prey proteins, fused to the Gal4 activation domain (G4AD), were co-transformed into reporter strain PJ69-4A. Y2H interactions were documented by spotting representative transformants in 10-fold serial dilution steps onto SC-Trp-Leu, SC-Trp-Leu-His (HIS3 reporter) and SC-Trp-Leu-Ade (ADE2 reporter) plates, which were incubated for 3 days at 30 °C. Growth on SC-Trp-Leu-His plates is indicative of a weak/moderate interaction, whereas only relatively strong interactions permit growth on SC-Trp-Leu-Ade plates.

[2] = biological target: T1, ScSqt1.53C (WD-repeat β-propeller domain of Sqt1) (Saccharomyces cerevisiae, UniProt P35184); test: isothermal titration calorimetry (ITC), S. cerevisiae; format: binding; conditions: for K / N / ΔH / ΔS: ScSqt1.53C, 15 °C, One Set of Sites fit
T1 construct: ScSqt1.53C (residues 53–431); (His)6 (C); made in house; host or cells: E. coli Rosetta(DE3)
T1 sequence (P35184 53-431): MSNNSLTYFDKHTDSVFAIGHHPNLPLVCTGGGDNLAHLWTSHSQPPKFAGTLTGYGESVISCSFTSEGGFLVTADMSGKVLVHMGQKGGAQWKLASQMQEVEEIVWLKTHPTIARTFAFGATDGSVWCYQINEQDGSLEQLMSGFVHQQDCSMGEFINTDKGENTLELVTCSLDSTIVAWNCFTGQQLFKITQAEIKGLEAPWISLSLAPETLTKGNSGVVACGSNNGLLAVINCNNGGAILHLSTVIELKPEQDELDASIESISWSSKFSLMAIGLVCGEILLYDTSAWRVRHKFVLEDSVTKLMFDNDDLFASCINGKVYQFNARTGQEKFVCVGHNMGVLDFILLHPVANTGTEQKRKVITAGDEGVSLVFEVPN
Method: ITC experiments were performed on a MicroCal ITC 2000 instrument (GE Healthcare). The following peptides, corresponding to the N-terminal 19 (without N-terminal methionine) or 20 amino acids of S. cerevisiae and C. thermophilum Rpl10, were synthesized with a free acid group at the C terminus (peptides&elephants): Rpl10(1–20) NH2-[…]-COOH, Rpl10(2–20) NH2-[…]-COOH, ctRpl10(1–20) NH2-[…]-COOH and ctRpl10(2–20) NH2-[…]-COOH. Peptides (1 mg each) were dissolved in the appropriate volume of gel-filtration buffer (20 mM HEPES–NaOH (pH 7.5), 200 mM NaCl, 20 mM KCl and 20 mM MgCl2), which was used for the purification of ScSqt1.53C and ctSqt1.52C, to obtain 1 mM stock solutions. Concentrations of proteins were determined by measuring the A280 using a NanoDrop Lite spectrophotometer (Thermo Scientific). For determination of the C. thermophilum Sqt1/L10-N binding, 200 μl of ctSqt1.52C (10 μM) was added to the sample cell and 2 μl of 100 μM solutions of the peptides was titrated in at 25 °C. For determination of the S. cerevisiae Sqt1/L10-N binding, 200 μl of ScSqt1.53C (100 μM) was added to the sample cell and 2 μl of 1 mM solutions of the peptides were titrated in at 15 °C. ITC data were processed using the Origin ITC Software (OriginLab) and thermodynamic parameters were obtained by fitting the data to a One Set of Sites binding model.

[3] = test system: Sqt1-Flag; test: in vitro binding assay, Ni-affinity co-purification of Sqt1-Flag; set-up: species or system S. cerevisiae; conditions: co-expression in E. coli, C-terminally (His)6-tagged Rpl10, Ni-affinity, SDS–PAGE and western blot
Method: For in vitro binding assays between Rpl10-(His)6 and Sqt1-Flag or between ctRpl10-(His)6 and ctSqt1, proteins were co-expressed from pETDuet-1 (Novagen) in Rosetta(DE3) (Novagen) or BL21(DE3) (Novagen) E. coli cells, respectively. Cells were grown in 200 ml of lysogeny broth medium and protein expression was induced at an OD600 of ∼0.6–0.8 by the addition of isopropyl-β-D-thiogalactoside to a final concentration of 0.5 mM. After 5 h of growth at 30 °C, cells were harvested and stored at −80 °C. Cells were resuspended in 25 ml lysis buffer (50 mM Tris-HCl (pH 7.5), 200 mM NaCl, 1.5 mM MgCl2 and 5% glycerol) and lysed with a M-110L Microfluidizer (Microfluidics). The lysate (30 ml volume) was adjusted by the addition of 300 μl 10% NP-40 to 0.1% NP-40 (note that from here onwards all buffers contained 0.1% NP-40). An aliquot of 100 μl of total extract (sample T) was taken and mixed with 100 μl of 6 × loading buffer. The total extract was then centrifuged at 4 °C for 20 min at 14,000 r.p.m. The soluble extract was transferred to a 50-ml Falcon tube and, as above, an aliquot of 100 μl of soluble extract (sample S) was taken and mixed with 100 μl of 6 × loading buffer. The insoluble pellet fraction (sample P) was resuspended in 3 ml of lysis buffer, and 10 μl thereof were mixed with 90 μl of lysis buffer and 100 μl of 6 × loading buffer. […]

[4] = biological target: T2, ctSqt1.52C-(His)6 (Chaetomium thermophilum); test: ITC
T2 chain: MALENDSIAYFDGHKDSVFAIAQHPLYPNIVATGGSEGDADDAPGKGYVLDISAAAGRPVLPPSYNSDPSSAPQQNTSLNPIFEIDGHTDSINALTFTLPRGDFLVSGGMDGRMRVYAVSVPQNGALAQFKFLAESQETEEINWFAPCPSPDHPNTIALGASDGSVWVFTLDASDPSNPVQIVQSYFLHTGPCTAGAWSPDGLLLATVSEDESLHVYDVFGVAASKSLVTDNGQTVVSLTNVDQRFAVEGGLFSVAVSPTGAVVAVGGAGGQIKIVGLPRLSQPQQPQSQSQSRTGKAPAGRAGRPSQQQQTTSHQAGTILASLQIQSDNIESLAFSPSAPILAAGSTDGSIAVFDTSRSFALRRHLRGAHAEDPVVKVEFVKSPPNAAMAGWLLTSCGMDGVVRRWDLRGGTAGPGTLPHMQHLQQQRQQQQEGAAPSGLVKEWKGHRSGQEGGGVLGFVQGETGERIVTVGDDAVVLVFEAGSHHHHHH

[5] = biological target: T2, ctSqt1.52C-(His)6; test: ITC; 200 μl ctSqt1.52C (10 μM) in the cell, 2 μl injections of 100 μM peptide, 25 °C; 20 mM HEPES–NaOH (pH 7.5), 200 mM NaCl, 20 mM KCl, 20 mM MgCl2; One Set of Sites model; approximate Kd
[6] = biological target: T3, Sqt1.53C-(His)6 (S. cerevisiae, UniProt P35184 53-431); test: ITC; 200 μl ScSqt1.53C (100 μM) in the cell, 2 μl injections of 1 mM peptide, 15 °C; 20 mM HEPES–NaOH (pH 7.5), 200 mM NaCl, 20 mM KCl, 20 mM MgCl2; One Set of Sites model; approximate Kd; conditions: both partners purified
T3 construct: Sqt1, S. cerevisiae, residues 53–431 (WD-repeat β-propeller domain); the ITC methods name only 'ScSqt1.53C'; the only free Sqt1.53C whose purification is described is Sqt1.53C-(His)6; also called ScSqt1.53C; source: E. coli Rosetta(DE3), purified (Ni-NTA, size-exclusion chromatography)
T3 sequence (looked up): T1 sequence (P35184 53-431)

[7] = biological target: T4, Sqt1.53C-(His)6 (S. cerevisiae, UniProt P35184 53-431); test: ITC
T4 chain: T1 sequence (P35184 53-431)

With “amino acids 1–20 of Rpl10: amino acids 1–20 of Rpl10, Y2H bait fused to G4BD (MARRPARCYRYQKNKPYPKS; also: fused to Gal4 DNA-binding domain; UniProt P41805 1-20, looked up, fragment)” as the molecule, how does the “Y2H interaction with Sqt1” value [1] read?
Its value is “sufficient to mediate the interaction with Sqt1”.

What does the source list for ARRPARCYRYQKNKPYPKS [ScL10-N(2–20)]?
K [2]: 4.78E7±2.57E7; N [2]: 1.076±0.0048; ΔH [2]: −1.187E4±102.9; ΔS [2]: −6.02; preference of Sqt1 for the L10-N peptide lacking Met1 ([2]; vs peptide containing Met1, S. cerevisiae): only a slight preference

For MARRPARCYRYQKNKPYPKS [ScL10-N(1-20)], which K [2] is on record?
The K was 2.33E7±1.79E7.

And the N [2]?
Its N is 1.09±0.00692.

What about the ΔH [2] of the same molecule?
Its ΔH is −1.101E4 +/−158.6.

And the ΔS [2]?
The ΔS was −4.45.

With “L10-N: N-terminal residues of Rpl10 (general term; co-crystals and pull-downs use co-expressed Rpl10(1–20)-(His)6) (MARRPARCYRYQKNKPYPKS; not fully specified)” as the molecule, how does the “co-purification with / interaction with Sqt1” value [3] read?
Its value is “required and sufficient for a robust interaction both with full-length Sqt1 and its β-propeller domain”.

Which Ka [4] does the source give for ARRPARCYRYCKNKPYPKS [ctRpl10(2–20) peptide] here?
Its Ka is 2.82e+07 M⁻¹.

What about the Kd [5] of the same molecule?
The Kd was 35 nM.

MARRPARCYRYCKNKPYPKS [ctRpl10(1–20) peptide] was tested. Which Ka [4] did it give?
The Ka was 2.26e+06 M⁻¹.

What about the Kd [5] of the same molecule?
The Kd was 442 nM.

B1: Rpl10(1–20) peptide (peptide)
peptide: MARRPARCYRYQKNKPYPKS
notes: Rpl10 (uL16), S. cerevisiae, N-terminal 20 amino acids; free amino group at the N terminus, free acid group at the C terminus; also called ScL10-N peptide including Met1 (amino acids 1–20); source: synthetic peptide (peptides&elephants)
For B1, which Kd [6] is on record?
The Kd was roughly 43 nM.

And the Ka [7]?
Its Ka is 2.33e+07 M⁻¹.

B2: Rpl10(2–20) peptide (peptide)
peptide: ARRPARCYRYQKNKPYPKS
notes: Rpl10 (uL16), S. cerevisiae, N-terminal 19 amino acids without the N-terminal methionine; free amino group at the N terminus, free acid group at the C terminus; also called ScL10-N peptide lacking Met1 (amino acids 2–20); source: synthetic peptide (peptides&elephants)
B2 was tested. Which Kd [6] did it give?
Its Kd is roughly 21 nM.

And the Ka [7]?
The Ka was 4.78e+07 M⁻¹.

B3: Rpl10-(His)6: C-terminally (His)6-tagged Rpl10 (protein)
chain: MARRPARCYRYQKNKPYPKSRYNRAVPDSKIRIYDLGKKKATVDEFPLCVHLVSNELEQLSSEALEAARICANKYMTTVSGRDAFHLRVRVHPFHVLRINKMLSCAGADRLQQGMRGAWGKPHGLAARVDIGQIIFSVRTKDSNKDVVVEGLRRARYKFPGQQKIILSKKWGFTNLDRPEYLKKREAGEVKDDGAFVKFLSKKGSLENNIREFPEYFAAQA
modifications: left off: (His)6, C-terminal, kept
notes: C-terminally (His)6-tagged Rpl10
Which “co-purification with / interaction with Sqt1” value [3] does the source give for B3 here?
The value was “efficient co-purification of Sqt1-Flag”.

B4: first 64 amino acids of Rpl10: first 64 amino acids of Rpl10, Y2H bait (protein, UniProt P41805 1-64, looked up, fragment)
chain: MARRPARCYRYQKNKPYPKSRYNRAVPDSKIRIYDLGKKKATVDEFPLCVHLVSNELEQLSSEA
modifications: Y2H bait
notes: first 64 amino acids of Rpl10, Y2H bait
For B4, which “Y2H interaction with Sqt1” value [1] is on record?
Its value is “binds”.

B5: Arg10 to glutamate: Rpl10 variant, Arg10 mutated to glutamate (protein, UniProt P41805 2-221, looked up, variant R10E)
Large ribosomal subunit …: ARRPARCYEYQKNKPYPKSRYNRAVPDSKIRIYDLGKKKATVDEFPLCVHLVSNELEQLSSEALEAARICANKYMTTVSGRDAFHLRVRVHPFHVLRINKMLSCAGADRLQQGMRGAWGKPHGLAARVDIGQIIFSVRTKDSNKDVVVEGLRRARYKFPGQQKIILSKKWGFTNLDRPEYLKKREAGEVKDDGAFVKFLSKKGSLENNIREFPEYFAAQA
With B5 as the molecule, how does the “Y2H interaction with Sqt1” value [1] read?
Its value is “abolished”.

B6: Arg4 to glutamate: Rpl10 variant, substitution of Arg4 to glutamate (protein, UniProt P41805 2-221, looked up, variant R4E)
Large ribosomal subunit …: B5 Large ribosomal subunit … with R3E, E9R
B6 was tested. Which “Y2H interaction with Sqt1” value [1] did it give?
Its value is “only slightly reduced the interaction with Sqt1”.
